# Patent US12643954B2, “Anti-CD36 antibodies and their use to treat cancer” (ONA Therapeutics, S.L., priority 2020, dated 2026)
# B1: ONA-0-v1: murine IgA anti-CD36 antibody; heavy chain SEQ ID NO: 5, light chain SEQ ID NO: 7 (antibody)
# heavy: QVQLKQSGADLVRPGASVKLSCKASGYTFTDYYINWVKQRPGQGLEWIARIYPGSGNTYYNEKFKGKATLTAEKSSSTAYMQLSSLTSEDSAVYFCARGIGGGFGMDYWGQGTSVTVSSESARNPTIYPLTLPPVLCSDPVIIGCLIHDYFPFGTMNVTWGKSGKDITTVNFPPALASGGRYTMSSQLTLPAVECPEGESVKCSVQHDSNPVQELDVNCSPTPPPPITIPSCQPSLSLQRPALEDLLLGSDASITCTLNGLRNPEGAAFTWEPSTGKDAVQKKAAQNSCGCYSVSSVLPGCAERWNSGASFKCTVTHPESGTLTGTIAKVTVNTFPPQVHLLPPPSEELALNELLSLTCLVRAFNPKEVLVRWLHGNEELSPESYLVFEPLKEPGEGATTYLVTSVLRVSAETWKQGDQYSCMVGHEALPMNFTQKTIDRLSGKPTNVSVSVIMSEGDGICY
# light: SIVMTQTPKFLLVSAGDRITITCKASQSVSDDVAWYQQKPGQSPKLLIYYASNRYTGVPDRFTGSGYGTDFTFTISTVQAEDLAVYFCQQDYSSPLTFGAGTKLEIKRADAAPTVSIFPPSSEQLTSGGASVVCFLNNFYPKDINVKWKIDGSERQNGVLNSWTDQDSKDSTYSMSSTLTLTKDEYERHNSYTCEATHKTSTSPIVKSFNRNEC
# modifications: ONA-0-v1 heavy chain; ONA-0-v1 light chain
# Molecular target: CD36 (Homo sapiens, UniProt P16671)
# Test: ELISA binding to plate-coated human CD36
# Parameters: purchased Sino Biological 10752-H08H
# Conditions: recombinant human CD36 coated plates
# Experimental: To perform ELISA assays, 96-well ELISA plates were coated over night with human CD36 (Sino Biological, reference 10752-H08H) or mouse CD36 (Sino Biological, reference 50422-M08H) recombinant proteins at a concentration of 0.25 mg/ml. After two washes with PBS, plates were blocked with 4% skimmed milk in PBS for 1 hour at 37° C. Blocking solution was discarded and plates were washed five times with 200 μl/well PBS-Tween20 (0.5%). Primary antibodies were either omitted (control blocking solution treatment) or mixed in blocking solution at several dilutions ranging from 0.01 nM to 0.5 μM. The primary antibody solutions were added to the wells and incubated over night at 4° C. After 5 washes with 200 ul/well of PBS-Tween20 (0.5%), plates were incubated for 1 hour at room temperature with a goat anti-mouse HRP-conjugated antibody (Abeam, reference ab97235) diluted 1:2000 in blocking solution. Plates were then washed 5 times with 200 μl/well of PBS-Tween20 (0.5%), incubated with 100 μl/well TMB and detected after 10 minutes, 30 minutes, or 60 minutes with a spectrophotometer at a wave length of 630 nm.
# CD36, sequence (P16671 30-439 limits assumed): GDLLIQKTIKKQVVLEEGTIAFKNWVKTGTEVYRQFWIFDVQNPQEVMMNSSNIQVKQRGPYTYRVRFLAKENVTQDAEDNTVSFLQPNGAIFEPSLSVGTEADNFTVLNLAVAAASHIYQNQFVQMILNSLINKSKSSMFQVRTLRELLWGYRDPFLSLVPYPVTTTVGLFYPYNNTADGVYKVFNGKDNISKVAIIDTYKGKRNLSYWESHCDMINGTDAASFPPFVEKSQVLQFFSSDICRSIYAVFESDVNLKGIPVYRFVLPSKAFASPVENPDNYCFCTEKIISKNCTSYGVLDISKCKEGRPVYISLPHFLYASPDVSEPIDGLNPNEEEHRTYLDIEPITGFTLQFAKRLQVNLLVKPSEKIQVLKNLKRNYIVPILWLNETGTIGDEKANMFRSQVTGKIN
molecule,measurement,value
B1,binding to human CD36 in ELISA,able to specifically bind
